The values that follow are results of earlier work, collected in paper PMC6162179.

The target in series [1] is Thioredoxin (Escherichia coli) [thioredoxin: P0AA25].
Series [2] concerns the target gp5 DNA polymerase (Escherichia phage T7) (UniProt P00581).

Sequence of gp2.5 (P03696 whole entry): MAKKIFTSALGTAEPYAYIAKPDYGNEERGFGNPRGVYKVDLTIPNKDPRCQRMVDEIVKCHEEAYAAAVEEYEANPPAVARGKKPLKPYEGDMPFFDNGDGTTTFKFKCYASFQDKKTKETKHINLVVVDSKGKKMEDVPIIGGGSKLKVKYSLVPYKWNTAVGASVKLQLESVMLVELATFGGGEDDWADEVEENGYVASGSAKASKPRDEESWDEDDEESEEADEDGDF
Sequence of Thioredoxin (Escherichia coli) [thioredoxin: P0AA25] (P0AA25 2-109): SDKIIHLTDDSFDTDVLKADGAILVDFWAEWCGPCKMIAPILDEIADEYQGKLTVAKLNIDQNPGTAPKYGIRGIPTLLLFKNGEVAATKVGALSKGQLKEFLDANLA
Sequence of gp5 DNA polymerase (Escherichia phage T7) (P00581 whole entry): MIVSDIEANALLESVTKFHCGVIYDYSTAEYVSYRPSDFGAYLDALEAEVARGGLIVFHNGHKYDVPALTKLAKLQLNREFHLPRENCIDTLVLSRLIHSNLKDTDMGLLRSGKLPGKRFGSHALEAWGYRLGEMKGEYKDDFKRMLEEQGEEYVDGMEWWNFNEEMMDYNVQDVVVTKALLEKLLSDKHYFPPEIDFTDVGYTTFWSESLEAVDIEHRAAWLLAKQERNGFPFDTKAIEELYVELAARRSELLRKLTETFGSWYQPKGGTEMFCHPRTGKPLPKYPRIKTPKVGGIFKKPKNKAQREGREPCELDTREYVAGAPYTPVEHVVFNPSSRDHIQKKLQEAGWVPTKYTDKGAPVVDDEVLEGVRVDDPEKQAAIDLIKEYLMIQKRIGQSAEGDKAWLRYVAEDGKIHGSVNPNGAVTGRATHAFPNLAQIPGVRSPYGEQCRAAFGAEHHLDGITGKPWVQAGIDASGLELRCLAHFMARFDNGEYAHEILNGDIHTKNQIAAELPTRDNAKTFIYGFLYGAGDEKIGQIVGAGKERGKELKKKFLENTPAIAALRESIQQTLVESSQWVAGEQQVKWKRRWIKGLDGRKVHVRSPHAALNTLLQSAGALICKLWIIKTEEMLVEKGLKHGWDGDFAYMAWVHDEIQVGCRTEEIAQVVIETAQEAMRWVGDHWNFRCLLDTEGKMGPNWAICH

Turning to gp2.5 (from UniProt P03696), the Kd (commonly the concentration at which binding is half-saturated) in series [1] is 500 µM; in series [2] it was 1 µM.
